These results are taken from patent CN101273061A.

The target of assay [1] is 重组产生的C末端截短的RSV(A2毒株)F蛋白 (RSV(A2毒株)) (UniProt P03420).
The target is the same in assay [2]. Description: SPR (BIAcore 3000); truncated F protein on CM5 chip at low density; off-rate at the instrument's detection limit, so an estimate.

UniProt P03420, sequence (P03420 26-524): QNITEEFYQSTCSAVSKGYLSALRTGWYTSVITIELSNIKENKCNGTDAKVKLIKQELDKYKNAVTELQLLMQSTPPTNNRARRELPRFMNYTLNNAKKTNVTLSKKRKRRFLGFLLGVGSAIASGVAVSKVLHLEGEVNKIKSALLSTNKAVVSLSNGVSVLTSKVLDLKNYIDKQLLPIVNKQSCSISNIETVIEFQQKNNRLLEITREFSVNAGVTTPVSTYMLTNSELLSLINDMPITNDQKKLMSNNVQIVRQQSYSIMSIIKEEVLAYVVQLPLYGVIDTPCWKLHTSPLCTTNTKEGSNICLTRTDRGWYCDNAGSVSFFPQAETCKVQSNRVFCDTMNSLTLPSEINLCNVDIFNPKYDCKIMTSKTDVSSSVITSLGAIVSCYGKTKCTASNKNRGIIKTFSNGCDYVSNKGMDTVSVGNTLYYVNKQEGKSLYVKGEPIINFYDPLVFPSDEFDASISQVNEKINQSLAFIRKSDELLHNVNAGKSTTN

For the substance A4B4L1FR-S28R(莫维珠单抗) (antibody), in assay [1], the fold higher affinity than palivizumab amounted to 70 fold and the fold higher association rate (kon) than palivizumab amounted to 4 fold. In assay [2], the fold lower dissociation rate (koff) than palivizumab is 17 fold.
